Tests used:
[1] = biological target: T1, Cynomolgus Monkey c-Met-Flis-Fc ECD (cynomolgus monkey); test: SPR Biacore, antibody captured, ECD-Fc analyte, 1:1 model
T1 construct: also called Cynomolgus Monkey cMet-ECD-Fc-Flis; cynomolgus monkey c-Met ECD
Experimental: (§1) A Biacore® 2000 instrument is used to measure the binding kinetics of c-Met antibodies to human, cynomolgus monkey, and rat c-Met ECDs. Measurements are performed at 25° C. Samples are dissolved in HBS-EP buffer (150 mM sodium chloride, 3 mM EDTA, 0.005% (w/v) surfactant P-20, and 10 mM N-2-hydroxyethylpiperazine-N′-2-ethanesulfonic acid (HEPES) at pH 7.4; #BR-1001-88).
(§2) Binding is evaluated using multiple cycles. Each cycle is performed at a flow rate of 50 μL/min., and consists of the following steps: injection of about 10 μL of a c-Met antibody at 10 μg/mL aiming at a capture of 40-100 RUs, injection of 250 μL of human, cynomolgus, or rat c-Met-Flis-Fc ECD (starting at 100 nM and using two-fold serial dilutions for each cycle) followed by 20 min. for dissociation, and regeneration using about 30 μL of 10 mM glycine hydrochloride, pH 1.5. Association and dissociation rates for each cycle are evaluated using a “1:1 (Langmuir) binding” model in the BIAevaluation software, version 4.1.

[2] = biological target: T2, Human c-Met-Flis-Fc ECD (human); test: as above
T2 construct: also called human c-Met extracellular domain (ECD)-Fc-Flis fusion; Human cMet-ECD-Fc-Flis
T2 sequence (chain, as listed by the source limits assumed): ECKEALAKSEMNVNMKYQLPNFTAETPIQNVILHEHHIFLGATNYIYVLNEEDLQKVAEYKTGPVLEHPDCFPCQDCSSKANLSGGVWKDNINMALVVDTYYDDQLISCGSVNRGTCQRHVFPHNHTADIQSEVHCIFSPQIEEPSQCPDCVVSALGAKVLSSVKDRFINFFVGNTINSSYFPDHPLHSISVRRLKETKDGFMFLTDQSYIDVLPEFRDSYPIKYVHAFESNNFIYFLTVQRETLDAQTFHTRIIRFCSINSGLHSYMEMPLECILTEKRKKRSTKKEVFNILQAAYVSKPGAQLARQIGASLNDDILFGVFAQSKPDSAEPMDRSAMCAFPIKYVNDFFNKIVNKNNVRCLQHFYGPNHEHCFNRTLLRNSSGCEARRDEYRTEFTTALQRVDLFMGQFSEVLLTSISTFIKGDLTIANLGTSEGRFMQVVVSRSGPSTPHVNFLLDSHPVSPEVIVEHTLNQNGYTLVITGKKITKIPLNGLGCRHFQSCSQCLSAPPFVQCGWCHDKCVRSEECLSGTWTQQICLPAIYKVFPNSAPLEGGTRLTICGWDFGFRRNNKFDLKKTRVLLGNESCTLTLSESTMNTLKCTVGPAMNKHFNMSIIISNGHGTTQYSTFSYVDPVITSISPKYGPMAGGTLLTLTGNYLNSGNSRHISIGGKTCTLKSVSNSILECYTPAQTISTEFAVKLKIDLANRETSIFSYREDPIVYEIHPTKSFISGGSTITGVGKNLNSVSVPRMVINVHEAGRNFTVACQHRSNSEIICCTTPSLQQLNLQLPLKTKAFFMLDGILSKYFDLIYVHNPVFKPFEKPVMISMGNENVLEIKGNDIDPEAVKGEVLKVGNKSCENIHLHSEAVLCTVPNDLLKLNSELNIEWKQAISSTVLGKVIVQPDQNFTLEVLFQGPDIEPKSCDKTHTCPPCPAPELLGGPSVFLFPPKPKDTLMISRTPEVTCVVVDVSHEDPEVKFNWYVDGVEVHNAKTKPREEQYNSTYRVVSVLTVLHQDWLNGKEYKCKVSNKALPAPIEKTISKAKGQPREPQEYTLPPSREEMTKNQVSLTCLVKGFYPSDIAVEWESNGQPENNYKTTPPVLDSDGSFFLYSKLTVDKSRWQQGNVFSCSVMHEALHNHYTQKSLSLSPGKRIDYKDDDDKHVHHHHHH
Experimental: as §1, §2

[3] = biological target: T3, PlexinA2-ECD-Fc (human, UniProt O75051 35-1237); test: ELISA, coated ECD-Fc, antibody 0.002 ng/mL
T3 construct: extracellular domain; Bought reagent
T3 sequence (looked up): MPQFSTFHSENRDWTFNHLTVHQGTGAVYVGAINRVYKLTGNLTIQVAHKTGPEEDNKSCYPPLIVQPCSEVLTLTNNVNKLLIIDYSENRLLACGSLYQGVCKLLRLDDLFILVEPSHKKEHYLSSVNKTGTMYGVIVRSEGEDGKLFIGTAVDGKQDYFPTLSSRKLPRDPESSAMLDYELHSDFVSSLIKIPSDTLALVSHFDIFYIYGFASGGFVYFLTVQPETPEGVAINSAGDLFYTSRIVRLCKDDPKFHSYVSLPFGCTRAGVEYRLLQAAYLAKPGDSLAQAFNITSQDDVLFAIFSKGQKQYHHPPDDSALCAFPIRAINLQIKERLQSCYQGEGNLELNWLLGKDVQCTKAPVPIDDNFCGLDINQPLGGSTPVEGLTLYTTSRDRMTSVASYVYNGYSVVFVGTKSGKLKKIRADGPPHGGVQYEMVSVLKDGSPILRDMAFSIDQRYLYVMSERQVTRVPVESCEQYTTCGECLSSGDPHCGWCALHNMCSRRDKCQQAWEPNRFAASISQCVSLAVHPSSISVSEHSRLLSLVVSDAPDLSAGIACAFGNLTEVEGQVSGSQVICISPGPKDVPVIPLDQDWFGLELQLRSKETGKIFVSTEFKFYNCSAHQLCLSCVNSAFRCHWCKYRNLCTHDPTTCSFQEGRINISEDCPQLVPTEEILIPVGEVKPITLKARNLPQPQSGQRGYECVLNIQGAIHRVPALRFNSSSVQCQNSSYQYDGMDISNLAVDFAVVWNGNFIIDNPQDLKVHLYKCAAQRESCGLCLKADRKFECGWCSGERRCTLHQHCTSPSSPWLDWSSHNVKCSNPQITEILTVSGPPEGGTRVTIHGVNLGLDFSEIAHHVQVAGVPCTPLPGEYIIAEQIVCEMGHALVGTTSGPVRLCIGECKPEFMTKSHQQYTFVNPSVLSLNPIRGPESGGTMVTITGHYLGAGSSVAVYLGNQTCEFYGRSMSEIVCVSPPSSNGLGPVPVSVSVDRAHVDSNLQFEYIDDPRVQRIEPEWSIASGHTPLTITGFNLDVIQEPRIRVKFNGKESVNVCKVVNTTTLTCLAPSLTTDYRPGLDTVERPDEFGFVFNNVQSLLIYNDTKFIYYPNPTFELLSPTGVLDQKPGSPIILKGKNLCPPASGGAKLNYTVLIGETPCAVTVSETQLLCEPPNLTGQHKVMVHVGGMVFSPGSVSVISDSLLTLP
Experimental: (§3) Wells of 96-well EIA/RIA high binding plates (Costar, #2592) are coated with 100 μL of 1 μg/mL human c-Met extracellular domain (ECD)-Fc-Flis fusion (SEQ ID NO:72), RON-ECD-Fc (R&D Systems, #1947-MS), or PlexinA2-ECD-Fc (Abnova, Taipei, Taiwan #H00005362-P01) in coating buffer (BioFX Labs, # COAT-1000-01) overnight at 4° C. […] After the plates are washed, 100 μL/well of substrate solution (BioFx, #TMBW-1000-01) are added and the plates are incubated for 10 min. at room temperature. 100 μL/well of stop solution (BioFx, # LSTP-1000-01) are added to stop the reaction. The colorimetric signals are developed and read at 450 nm using a SpectraMax 190 plate reader (Molecular Devices, Sunnyvale, Calif.). c-Met antibody binding to c-Met, RON and PlexinA2 ECDs is proportional to color signal production.

[4] = biological target: T2, Human c-Met-Flis-Fc ECD; test: ELISA, coated ECD-Fc, antibody 0.002 ng/mL
Experimental: as §3

T1 sequence (chain, as listed by the source limits assumed): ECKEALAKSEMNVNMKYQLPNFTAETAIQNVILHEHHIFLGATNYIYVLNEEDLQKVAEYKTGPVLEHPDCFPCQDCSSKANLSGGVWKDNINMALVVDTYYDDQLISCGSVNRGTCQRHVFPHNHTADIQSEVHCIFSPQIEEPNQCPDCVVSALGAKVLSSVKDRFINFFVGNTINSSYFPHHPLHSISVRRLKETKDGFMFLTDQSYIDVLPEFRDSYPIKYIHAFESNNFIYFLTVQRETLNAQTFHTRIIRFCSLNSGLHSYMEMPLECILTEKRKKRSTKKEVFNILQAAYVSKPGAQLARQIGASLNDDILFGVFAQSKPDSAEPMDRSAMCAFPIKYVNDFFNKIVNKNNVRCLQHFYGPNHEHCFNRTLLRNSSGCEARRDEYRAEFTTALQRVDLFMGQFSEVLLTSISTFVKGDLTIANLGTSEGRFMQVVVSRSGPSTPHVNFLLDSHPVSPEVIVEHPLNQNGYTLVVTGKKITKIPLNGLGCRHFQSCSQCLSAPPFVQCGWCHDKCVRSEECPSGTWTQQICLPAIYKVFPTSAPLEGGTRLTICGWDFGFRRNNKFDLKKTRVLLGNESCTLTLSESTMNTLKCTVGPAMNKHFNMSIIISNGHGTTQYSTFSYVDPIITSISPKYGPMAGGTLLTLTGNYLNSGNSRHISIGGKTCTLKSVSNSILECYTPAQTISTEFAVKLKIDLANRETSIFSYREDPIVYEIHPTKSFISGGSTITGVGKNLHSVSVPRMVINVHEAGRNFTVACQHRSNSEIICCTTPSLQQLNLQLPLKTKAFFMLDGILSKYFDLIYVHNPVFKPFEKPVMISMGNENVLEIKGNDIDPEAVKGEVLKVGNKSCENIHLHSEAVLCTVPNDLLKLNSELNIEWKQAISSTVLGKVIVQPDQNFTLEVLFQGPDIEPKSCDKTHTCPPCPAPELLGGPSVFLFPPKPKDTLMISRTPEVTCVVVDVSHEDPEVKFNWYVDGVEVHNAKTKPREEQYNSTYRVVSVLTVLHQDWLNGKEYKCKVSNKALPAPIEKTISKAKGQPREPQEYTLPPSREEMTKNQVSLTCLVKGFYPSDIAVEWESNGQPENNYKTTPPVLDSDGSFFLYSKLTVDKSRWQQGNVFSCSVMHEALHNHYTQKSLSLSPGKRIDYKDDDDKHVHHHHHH

B1: C8-6 (antibody, human IgG2, kappa, V domains shown)
VH: QVQLVQSGAEVKKPGASVKVSCKASGYTFTDYYMHWVRQAPGQGLEWMGRVNPNRGGTTYNQKFEGRVTMTTDTSTSTAYMELRSLRSDDTAVYYCARTNWLDYWGQGTTVTVSS
VL: DIQMTQSPSSLSASVGDRVTITCSVSSSVSSIYLHWYQQKPGKAPKLLIYSTSNLASGVPSRFSGSGSGTDFTLTISSLQPEDFATYYCIQYSGYPLTFGGGTKVEIKR
notes: Called IgG4, kappa; also called Mab C8-6
Kd [1]: 3.6 nM | koff [1]: 0.00045 s⁻¹ | kon [1]: 140000 M⁻¹ s⁻¹ | Kd [2]: 4 nM | koff [2]: 0.0003 s⁻¹ | kon [2]: 160000 M⁻¹ s⁻¹ | Average A450 nm [3]: 0.099 A450 nm | Average A450 nm [4]: 0.326 A450 nm
